The text below walks through data of patent publication US20040019193A1, “Mob-5/hmob-5 as a cancer diagnostic marker” (priority 2002, published 2004).

Test [1] concerns Rat-1 cells. Nature of the test: Over expression of Mob-5 in Rat-1 cells, morphological transformation. In kind it is cell-based. Conditions: retroviral over expression of Mob-5 alone in Rat-1 cells. The source says: Over expression of the full length mob-5 cDNA with retroviral vector in a variety of rodent fibroblasts including Rat-1 cells led to high level secretion of Mob-5 protein with a predicted MW of 23 KD into the culture media, which could be readily detected by western blot using polyclonal antibody directed against the recombinant Mob-5 (FIG. 4A).
Construction of mob-5 mammalian expression construct A 680-bp BspHI-Bgl II restriction fragment containing the entire coding region of mob-5 was generated by PCR using cloned mob-5 cDNA as a template. The targeting construct was subsequently inserted between the Nco I and Bam I sites of retroviral vector pMFG-S (Danos and Mulligan, 1988; Dranoff, G. et al. 1993) and sequenced to ensure the sequence accuracy.
Transfection and Retroviral Infection Recombinant plasmids were transfected into target cells by the standard calcium phosphate precipitation method. For retroviral packaging, pMFG-S-Mob-5 was cotransfected with pCMV-Neo vector at a rate of 10:1 (10 μg of pCMV-S-rMob-5: 1 μg of pCMV-Neo) into the CRIP packaging cells to produce G418 (1 mg/ml) resistant stable cell lines. Retroviral infection was carried out essentially as described previously (Zhang et al., 1998). […]

In test [2] the test system is putative Mob-5 receptor on the cell surface of h-ras transformed RIE cells. Kind of test: AP fusion protein receptor binding assay on RIE cells before and after h-ras transformation. More on the design: species or system rat. The following applies: normal versus h-ras transformed RIE cells, media at 0.7 unit/ml. As to the method: (E) Mob-5-AP, but not hMob-5-AP, binds specifically to the cell surface of oncogenic h-ras transformed RIE cells. Both the normal and oncogenic h-ras transformed RIE cells were analyzed for the ability to bind Mob-5-AP versus AP alone. The same experiment was carried out with hMob-5-AP and AP alone. The cell surface bound AP activity was measured to reveal a species specific Mob-5 binding activity present only on the cell surface of the h-ras transformed RIE cells. The result is representative of at least 3 independent experiments.
As in Rat-1 cells, the putative Mob-5 receptor was also found to be differentially expressed between the normal and h-ras transformed RIE cells using Mob-5-AP fusion protein as a ligand (FIG. 4E, left panel). To determine whether hMob-5-AP could also differentially bind to the cell surface of h-ras transformed RIE cells, the receptor binding assay was conducted using hMob-5-AP in place of Mob-5-AP.
mob-5 expression is activated by both oncogenic h-ras and k-ras in intestinal epithelial cells Cancer arises from the epithelial cells rather than fibroblasts and K-ras mutations have been tightly linked with cancers of gastric intestinal origins (Kiaris and Spandidos, 1995). […] After the final 5 min extension at 72 ° C., the RT-PCR products were analyzed on a 1.5 % agarose gel. […]

Test [3] addresses T1, hMob-5 (Homo sapiens, UniProt Q13007).
T1 sequence (Q13007 1-207 isoform Q13007-2): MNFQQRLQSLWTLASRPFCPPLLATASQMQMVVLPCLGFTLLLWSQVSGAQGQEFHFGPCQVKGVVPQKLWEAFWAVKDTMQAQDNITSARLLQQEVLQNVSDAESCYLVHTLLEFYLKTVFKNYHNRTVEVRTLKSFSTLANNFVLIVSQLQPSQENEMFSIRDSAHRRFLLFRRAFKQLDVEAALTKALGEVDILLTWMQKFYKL
Nature of the test: GBA bead capture ELISA for Mob-5, standard curve. As to the method:
This allows the use of GBA in a method for detecting Mob-5 in an ELISA. GBA is utilized to capture the antigen (i.e. Mob-5) and a biotinylated monoclonal antibody to Mob-5 is used to detect the antigen. The use of GBA allows for higher capacity and lower costs when compared to the traditional ELISA method. The method is performed by diluting a biotinylated Mab-hMob-5 (for example, the monoclonal antibody produced from hybridoma clone L-14) 1:500 in PBST (Phosphate Buffered Saline, Tween 0.05%); diluting Streptavidin-HRP (Sigma) 1:500 in PBST; mixing the diluted Mab-hMob-5 with the diluted Streptavidin-HRP in equal volume (for example, […]); letting the mixture sit for 5-10 minutes; washing the GBA beads with PBST twice; spinning and removing the upper liquid phase with an aspirator; resuspending the washed GBA beads in PBST as a 50% suspension; mixing […] of a sample with 100 ml of the diluted Mab-hMob-5 and Streptavidin-HRP mixture in a tube; adding […] of resuspended GBA beads to the tube; allowing the tube to rotate on a roller for 1-2 hours; spinning down the GBA beads for 2 minutes; aspirating the supernatant; washing the beads with 1 ml of PBST twice; washing the beads with dH20 twice; removing the supernatant; adding […] of horseradish peroxidase (HRP) substrate with H2O2 to resuspend the beads; allowing the color to develop in the dark for as long as needed (from hours, to days or weeks). A hMob-5-9×His medium can be utilized as a positive control. One skilled in the art would know that variations of this protocol are possible. For example, the GBA beads may be added to the sample prior to the addition of the biotinylated Mab/streptavidin-HRP mixture, alkaline phosphatase labeled streptavidin can be used, wash times may vary, spin times may vary and development times may vary. By utilizing this method, representative results for a standard curve were obtained.

B1: Mob-5: rat secreted protein of 183 amino acids, 23 KD, encoded by oncogenic ras target gene mob-5 (protein)
chain: PELQGQEFRFGPCQVTGVVLPELWEAFWTVKNTVKTQDELTSVRLLKPQVLQNVSDAESCYLAHSLLKFYLNTVFKNYHSKIVKFKVLKSFSTLANNFLVIMSKLQPSKDNAMLPISDSARRRFLLYHRTFKQLDIEVALAKAFGEVDILLAWMQNFYQL
As to B1, the “morphological transformation on over expression” value in test [1] was “did not lead to any obvious morphological transformation”.

B2: hMob-5-AP: human Mob-5 fused at the C-terminus with alkaline phosphatase, 90 KD (SEQ ID NO: 10) (protein)
chain: MNFQQRLQSLWTLASRPFCPPLLATASQMQMVVLPCLGFTLLLWSQVSGAQGQEFHFGPCQVKGVVPQKLWEAFWAVKDTMQAQDNITSARLLQQEVLQNVSDAESCYLVHTLLEFYLKTVFKNYHNRTVEVRTLKSFSTLANNFVLIVSQLQPSQENEMFSIRDSAHRRFLLFRRAFKQLDVEAALTKALGEVDILLTWMQKFYKLGSSGIIPVEEENPDFWNREAAEALGAAKKLQPAQTAAKNLIIFLGDGMGVSTVTAARILKGQKKDKLGPEIPLAMDRFPYVALSKTYNVDKHVPDSGATATAYLCGVKGNFQTIGLSAAARFNQCNTTRGNEVISVMNRAKKAGKSVGVVTTTRVQHASPAGTYAHTVNRNWYSDADVPASARQEGCQDIATQLISNMDIDVILGGGRKYMFPMGTPDPEYPDDYSQGGTRLDGKNLVQEWLAKRQGARYVWNRTELMQASLDPSVTHLMGLFEPGDMKYEIHRDSTLDPSLMEMTEAALRLLSRNPRGFFLFVEGGRIDHGHHESRAYRALTETIMFDDAIERAGQLTSEEDTLSLVTADHSHVFSFGGYPLRGSSIFGLAPGKARDRKAYTVLLYGNGPGYVLKDGARPDVTESESGSPEYRQQSAVPLDEETHAGEDVAVFARGPQAHLVHGVQEQTFIAHVMAFAACLEPYTACDLAPPAGTTDAAHPG
As to B2, in test [2], the “cell surface binding (bound AP activity) versus AP alone” value is “did not exhibit any preferential cell surface binding”.

B3: hMob-5: human homolog of Mob-5, secreted protein over expressed in colon cancer (protein)
chain: T1 sequence (Q13007 1-207 isoform Q13007-2)
For B3, the OD405 in test [3] (hMob-5 2 ng/ml) was 0.216; in test [3] (hMob-5 10 ng/ml), 0.941; in test [3] (hMob-5 20 ng/ml), 1.881.
